Assay [1] concerns the target T1, human neutrophil elastase (human, UniProt P08246 30-247, limits assumed).
T1 sequence (looked up): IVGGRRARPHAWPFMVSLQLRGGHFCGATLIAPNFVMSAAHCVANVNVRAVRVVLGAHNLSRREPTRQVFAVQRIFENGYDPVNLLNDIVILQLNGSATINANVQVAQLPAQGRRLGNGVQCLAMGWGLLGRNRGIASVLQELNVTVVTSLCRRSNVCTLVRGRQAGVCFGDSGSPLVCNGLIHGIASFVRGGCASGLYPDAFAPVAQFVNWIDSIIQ
Kind of assay: cell-based or functional assay.

Assay [2] has as its target T2, human thrombin (human, UniProt P00734 328-622). Kind of assay: cell-based or functional assay.
For assay [3], the target named is T3, human factor Xa (human, UniProt P00742 41-179; P00742 235-488, limits assumed). Kind of assay: cell-based or functional assay.
In assay [4] the target is T1, human neutrophil elastase. Kind of assay: cell-based or functional assay. This is another data set of the same source.
The target of assay [5] is T4, human neutrophil cathepsin G (human, UniProt P08311 21-244).
T4 sequence (looked up): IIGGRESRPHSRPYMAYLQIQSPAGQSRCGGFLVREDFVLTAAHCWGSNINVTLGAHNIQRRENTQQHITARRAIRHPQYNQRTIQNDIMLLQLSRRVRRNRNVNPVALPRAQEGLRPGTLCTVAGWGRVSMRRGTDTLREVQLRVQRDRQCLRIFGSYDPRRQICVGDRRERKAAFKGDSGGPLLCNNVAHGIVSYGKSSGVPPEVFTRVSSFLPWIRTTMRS
Briefly: cell-based or functional assay.

Assay [6] deals with T2, human thrombin. Briefly: thrombin inhibition rate in the absence of heparin.
Assay [7] concerns the target T2, human thrombin. Kind of assay: thrombin inhibition rate in the presence of heparin (HAH).
The target in assay [8] is T3, human factor Xa. Kind of assay: residual enzyme activity against time, pseudo-first-order, with heparin. As for the experimental part:
Polybrene was added with the chromogenic substrate to quench the heparin dependent reaction. The observed pseudo-first-order rate constants were calculated for each heparin (1 nM-5 nM) concentration from the slope of the log of residual proteinase activity vs. time. This was plotted against the heparin concentration to calculate the second-order rate constant for the inhibition by the heparin-ATIII complex, (Kₕₑₚ) from the equation Kobs=Kₕₑₚ[H]ₒ([AT]ₒ/[AT]ₒ+Kd)+Kuncat[AT]ₒ

Assay [9] addresses T2, human thrombin. Kind of assay: residual enzyme activity against time, pseudo-first-order, progressive (no heparin).
In assay [10] the target is T3, human factor Xa. Described as above.
Assay [11] addresses T5, thrombin (human, UniProt P00734 328-622). Briefly: cell-based or functional assay.
For assay [12], the target named is T6, factor Xa (human, UniProt P00742 41-179; P00742 235-488, limits assumed). Briefly: cell-based or functional assay.
Assay [13] concerns the target T6, factor Xa. Kind of assay: heparin cofactor assay, HCA expt #3; ATIII titrated on 10 nM fXa + 50 ug/ml UFH, chromogenic readout. The method, then:
(§1) After 3 minutes, the reactions were quenched with polybrene and chromogenic substrate S2238 (thrombin) or S2765 (fXa), and the initial rate of chromophore production (405 nm) recorded to obtain a measurement residual, uninhibited thrombin or factor Xa. IC50s were determined from plots of ATIII concentration vs. percent residual target enzyme activity.

For assay [14], the target named is T5, thrombin. Briefly: heparin cofactor assay, HCA expt #3; ATIII titrated on 10 nM thrombin + 50 ug/ml UFH, chromogenic readout. The method, then: as §1
Assay [15] addresses T6, factor Xa. Kind of assay: heparin cofactor assay, HCA expt #2; ATIII titrated on 10 nM fXa + 50 ug/ml UFH, chromogenic readout. The method, then:
as §1

The target in assay [16] is T5, thrombin. Kind of assay: heparin cofactor assay, HCA expt #2; ATIII titrated on 10 nM thrombin + 50 ug/ml UFH, chromogenic readout. The method, then:
as §1

Positions count from the first letter of the chain named. Numbers in names are those of the source.

T3 sequence (P00742 41-179 limits assumed, chain 1 of 2): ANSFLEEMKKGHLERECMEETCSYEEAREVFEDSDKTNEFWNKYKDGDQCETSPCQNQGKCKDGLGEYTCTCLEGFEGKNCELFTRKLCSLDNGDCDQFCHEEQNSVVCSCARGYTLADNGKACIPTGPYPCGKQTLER
T3 sequence (P00742 235-488 limits assumed, chain 2 of 2): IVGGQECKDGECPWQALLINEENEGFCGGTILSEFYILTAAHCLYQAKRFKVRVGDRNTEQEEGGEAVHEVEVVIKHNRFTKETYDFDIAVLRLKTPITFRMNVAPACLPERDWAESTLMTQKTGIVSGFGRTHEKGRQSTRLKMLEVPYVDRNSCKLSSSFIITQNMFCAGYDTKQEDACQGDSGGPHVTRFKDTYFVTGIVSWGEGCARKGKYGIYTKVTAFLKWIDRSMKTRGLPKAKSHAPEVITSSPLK
T6 sequence (P00742 41-179 limits assumed, form in doubt, chain 1 of 2): as the sequence (P00742 41-179 limits assumed, chain 1 of 2) above
T6 sequence (P00742 235-488 limits assumed, form in doubt, chain 2 of 2): as the sequence (P00742 235-488 limits assumed, chain 2 of 2) above

B1: LEAI.474 (other)
chain: SPVDICTAKPRDIPMNPMCIYRSPEKKATEDEGSEQKIPEATNRRVWELSKANSRFATTFYQHLADSKNDNDNIFLSPLSISTAFAMTKLGACNDTLQQLMEVFKFDTISEKTSDQIHFFFAKLNCRLYRKANKASKLVSANRLFGDKSLTFNETYQDISELVYGAKLQPLDFKENAEQSRAAINKWVSNKTEGRITDVIPSEAINELTVLVLVNTIYFKGLWKSKFSPENTRKELFYKADGESCSASMMYQEGKFRYRRVAEGTQVLELPFKGDDITMVLILPKPEKSLAKVEKELTPEVLQEWLDELEEMMLVVHMPRFRIEDGFSLKEQLQDMGLVDLFSPEKSKLPGIVAEGRDDLYVSDAFHKAFLEVNEEGSEAAASTALEAQGRSLNPNRVTFKANRPFLVFIREVPLNTIIFMGRVANPCVK
notes: Recombinant human ATIII variant made in Drosophila S2 cells on the S137A background; also called DES.LEAI.474; LEAQ parent
Take B1: in [1], the “halflife, min (HNE/hep)” value is 38.4 min. Also, in assay [2], the “IC50 IIa/UFH (HCA #5)” value stood at 65 nM, the “IC50 IIa/UFH (HCA #6)” value worked out at 55 nM, the “IC50 IIa/UFH; HCA #2” value stood at 65 nM and the “IC50 IIa/UFH; HCA #3” value came out at 47 nM. Besides, in assay [2], the “IC50 IIa/UFH; HCA #4” value was 50 nM; the “rsd IIa, no add (CA #51, stg 1 conc 200)” value stood at 2%; the “rsd IIa, no add (CA #52, stg 1 conc 200)” value is 4%. In addition, in assay [3], the “IC50 fXa/UFH (HCA #5)” value was determined as 23 nM, the “IC50 fXa/UFH (HCA #6)” value was 33 nM, the “IC50 fXa/UFH; HCA #2” value is 20 nM and the “IC50 fXa/UFH; HCA #3” value worked out at 16 nM. Further, in assay [3], the “IC50 fXa/UFH; HCA #4” value was determined as 13 nM; the “rsd Xa, no add (CA #51, stg 1 conc 200)” value was -1%; the “rsd Xa, no add (CA #52, stg 1 conc 200)” value worked out at 2%. In addition, in assay [4], the “rsd IIa, HNE (CA #51, stg 1 conc 200)” value was 2%; the “rsd IIa, HNE (CA #52, stg 1 conc 200)” value was 3%; the “rsd Xa, HNE (CA #51, stg 1 conc 200)” value is -3%; the “rsd Xa, HNE (CA #52, stg 1 conc 200)” value is 3%. Moreover, in assay [5], the “rsd IIa, catG (CA #51, stg 1 conc 200)” value was 2%; the “rsd IIa, catG (CA #52, stg 1 conc 200)” value was 3%; the “rsd Xa, catG (CA #51, stg 1 conc 200)” value was -2%; the “rsd Xa, catG (CA #52, stg 1 conc 200)” value came out at 1%. Moreover, the “Kapp, thrombin progressive” value in [6] was found to be 2700 M⁻¹ s⁻¹. In addition, in assay [7], the “Kapp, thrombin HAH” value was found to be 2e+06 M⁻¹ s⁻¹. Further, the “kapp (apparent second-order inhibition rate constant)” value in [8] is 1.25e+06 M⁻¹ s⁻¹. In assay [9], the “kapp (apparent second-order inhibition rate constant)” value is 2680 M⁻¹ s⁻¹. Further, in assay [10], the “kapp (apparent second-order inhibition rate constant)” value was found to be 10700 M⁻¹ s⁻¹.

B2: 7EVEA.454 (other)
chain: B1 chain with A385E, L386V, A388W, Q389A
modifications: N-linked glycans added by Drosophila S2 cells; not carried by the letters
notes: Made in Drosophila S2 cells (DES) on the S137A background; N-terminus printed as SPVDI---
With B2, in assay [11], the “Rsd. IIa No add; CA expt #8; stg1 conc 200” value (shortened to “Rsd. IIa No add”) was 23 % of activity without ATIII, the “rsd. IIa catG; CA expt #8; stg1 conc 200” value is 93 % of activity without ATIII and the “rsd. IIa hne; CA expt #8; stg1 conc 200” value is 53 % of activity without ATIII. Also, in assay [12], the “rsd. Xa catG; CA expt #8; stg1 conc 200” value was 2 % of activity without ATIII, the “rsd. Xa hne; CA expt #8; stg1 conc 200” value was 1 % of activity without ATIII and the “rsd. Xa no add; CA expt #8; stg1 conc 200” value (shortened to “rsd. Xa no add”) was 1 % of activity without ATIII. Further, the IC50 in [13] amounted to 20 nM. The IC50 in assay [14] amounted to 610 nM.

B3: 7EVEA.453 (other)
chain: B1 chain with A385E, L386V, A388F, Q389A
modifications: N-linked glycans added by Drosophila S2 cells; not carried by the letters
notes: as for B2
With B3, in assay [11], the “Rsd. IIa No add” value is 14 % of activity without ATIII, the “rsd. IIa catG; CA expt #8; stg1 conc 200” value was 62 % of activity without ATIII and the “rsd. IIa hne; CA expt #8; stg1 conc 200” value was 35 % of activity without ATIII. For the same molecule, in [12], the “rsd. Xa catG; CA expt #8; stg1 conc 200” value was 2 % of activity without ATIII, the “rsd. Xa hne; CA expt #8; stg1 conc 200” value is 1 % of activity without ATIII and the “rsd. Xa no add” value was 1 % of activity without ATIII. In addition, the IC50 in assay [13] was determined as 19 nM. Besides, in [14], the IC50 was 450 nM.

B4: 7EVEA.451 (other)
chain: B1 chain with A385E, L386V, A388I, Q389A
modifications: N-linked glycans added by Drosophila S2 cells; not carried by the letters
notes: as for B2
Regarding B4, in assay [11], the “Rsd. IIa No add” value is 6 % of activity without ATIII, the “rsd. IIa catG; CA expt #8; stg1 conc 200” value was 7 % of activity without ATIII and the “rsd. IIa hne; CA expt #8; stg1 conc 200” value is 12 % of activity without ATIII. Moreover, in [12], the “rsd. Xa catG; CA expt #8; stg1 conc 200” value was 1 % of activity without ATIII, the “rsd. Xa hne; CA expt #8; stg1 conc 200” value is 1 % of activity without ATIII and the “rsd. Xa no add” value is 1 % of activity without ATIII. Also, the IC50 in assay [15] is 38 nM. In addition, the IC50 in assay [13] turned out to be 50 nM. The concentration for half-maximal inhibition (IC50) in assay [16] turned out to be 400 nM. Besides, the concentration for half-maximal inhibition (IC50) in [14] turned out to be 450 nM.

B5: 7EVEA.452 (other)
chain: B1 chain with A385E, L386V, A388L, Q389A
modifications: N-linked glycans added by Drosophila S2 cells; not carried by the letters
notes: as for B2
B5: in [11], the “Rsd. IIa No add” value was 12 % of activity without ATIII, the “rsd. IIa catG; CA expt #8; stg1 conc 200” value was 14 % of activity without ATIII and the “rsd. IIa hne; CA expt #8; stg1 conc 200” value is 46 % of activity without ATIII. Besides, in assay [12], the “rsd. Xa catG; CA expt #8; stg1 conc 200” value is 1 % of activity without ATIII, the “rsd. Xa hne; CA expt #8; stg1 conc 200” value is 2 % of activity without ATIII and the “rsd. Xa no add” value was 1 % of activity without ATIII. Besides, the IC50 in assay [13] came out at 24 nM. Besides, the IC50 in assay [14] is 750 nM.

What is called IC50 is the concentration that inhibits the measured activity by half.

Source of the values: patent US20060259987A1 (UNIVERSITY OF UTAH RESEARCH FOUNDATION, published 2006).
